Patent publication US8431531B2, “Methods for stimulating glucagon-like peptide-1(GLP-1) secretion and treatments comprising same” (Campina Nederland Holding B.V., priority 2005, dated 2013)
Each block holds one substance with its values, some of them ahead of it.

Key:
[1] = molecular target: T1, DPP-IV (Sus scrofa, UniProt P22411); experiment: In vitro measurement of DPP-IV activity (Gly-Pro-p-nitroanilide substrate, absorption at 385 nm); type: biochemical; settings: Tris buffer pH 8.0
T1 construct: purchased Sigma D-7052
T1 sequence (P22411 whole entry): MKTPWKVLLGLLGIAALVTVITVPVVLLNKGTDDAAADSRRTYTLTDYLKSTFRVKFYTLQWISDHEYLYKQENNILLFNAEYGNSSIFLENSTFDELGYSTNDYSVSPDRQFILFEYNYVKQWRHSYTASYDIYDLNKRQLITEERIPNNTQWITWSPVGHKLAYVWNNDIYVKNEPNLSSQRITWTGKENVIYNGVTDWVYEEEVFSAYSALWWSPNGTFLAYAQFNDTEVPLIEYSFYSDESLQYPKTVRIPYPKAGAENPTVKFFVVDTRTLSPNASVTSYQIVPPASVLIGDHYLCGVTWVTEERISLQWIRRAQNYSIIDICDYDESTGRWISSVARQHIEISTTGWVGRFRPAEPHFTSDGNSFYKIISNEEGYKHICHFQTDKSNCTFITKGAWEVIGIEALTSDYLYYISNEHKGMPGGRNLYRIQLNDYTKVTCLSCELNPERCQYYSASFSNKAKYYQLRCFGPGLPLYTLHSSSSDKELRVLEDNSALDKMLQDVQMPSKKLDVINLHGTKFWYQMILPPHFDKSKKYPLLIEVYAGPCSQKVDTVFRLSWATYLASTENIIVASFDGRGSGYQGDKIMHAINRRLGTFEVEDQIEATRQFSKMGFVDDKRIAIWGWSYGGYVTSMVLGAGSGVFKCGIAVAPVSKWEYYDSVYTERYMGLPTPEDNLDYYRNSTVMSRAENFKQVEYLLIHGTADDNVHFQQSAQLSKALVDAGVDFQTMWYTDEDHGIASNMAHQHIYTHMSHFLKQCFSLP
Description: DPP-IV activity can be determined by measuring the increase in absorption at 385 nm using Gly-Pro-p-nitroanilide (Sigma G-0513) as DPP-IV substrate. A decrease in DPP-IV activity is a measure for the inhibition.
13.152 mg Gly-Pro-p-nitroanilide (substrate; Sigma G-0513) was dissolved in 1 ml Tris buffer, pH 8.0. DPP-IV (Sigma D-7052) was diluted with Tris buffer, pH 8.0 to 1.1 Unit/ml. The substrate was diluted 50-fold with Tris buffer, pH 8.0. The samples were prepared by diluting a protein hydrolysate to a 1 wt. % protein solution in Tris buffer, pH 8.0. The samples were then serially diluted to obtain a range of sample concentrations. 50 μl of the different serially diluted samples and 50 μl of the diluted substrate were then pipetted in wells of a microtiter plate with 96 wells. Subsequently, 100 μl of the diluted enzyme was pipetted in each well of a plate with 96 wells. Then the increase in absorption at 385 nm was determined and DPP-IV activities at different concentrations of a variety of protein hydrolysates were determined, from which the IC50 (i.e. the concentration of inhibitor (particular protein hydrolysate) that inhibits 50% of the DPP-IV activity) could be derived. […] The degree of hydrolysis was determined using the o-phtaldialdehyde method, which is well known in the art.

[2] = plasma; degradation by DPP-IV; cited from earlier work
[3] = system: Bipro from Davisco Foods, USA (unhydrolysed, DH 0%)
[4] = system: Sodium caseinate from DMV International, NL (unhydrolysed, DH 0%)

DPP-IV inhibition by unhydrolysed protein (control, DH 0%) [1]: did not inhibit the enzyme
Substance: Sodium caseinate

Substance: GLP-1: 30 amino acid incretin peptide, sequence HAEGTFTSDVSSYLEGQAAKEFIAWLVKGR (SEQ ID NO: 1)
half-life [2]: 1 to 2 min

Substance: dipeptidyl peptidase IV (DPP-IV)
DPP-IV activity (Gly-Pro-p-nitroanilide substrate, absorption at 385 nm) [3]: unhydrolysed protein did not inhibit the enzyme
DPP-IV activity (Gly-Pro-p-nitroanilide substrate, absorption at 385 nm) [4]: unhydrolysed protein did not inhibit the enzyme
